One series has as its system maize T0 events. Put plainly: greenhouse spray test of maize T0 events for tolerance to Cmpd. 4. Type of series: in vivo. To be noted: 25 g AI/ha.
The next series concerns soybean shoots. Description: soybean transformation, greening or bleaching of shoots on isoxaflutole or tembotrione selection. To be noted: selection amount of herbicide. Type of series: in vivo. The text has this: Soybean transformation is achieved using methods well known in the art, such as the one described using the Agrobacterium tumefaciens mediated transformation soybean half-seed explants using essentially the method described by Paz et al. (2006), Plant cell Rep. 25:206. Transformants were identified using tembotrione or isoxaflutole as selection marker. The appearance of green shoots was observed, and documented as an indicator of tolerance to the herbicide isoxaflutole or tembotrione.

For a further series, the system named is T0 soybean plants. Put plainly: greenhouse spray test of T0 soybean plants for tolerance to mesotrione. The format is in vivo. To be noted: mesotrione 3X field rate, 316 grams AI per hectare, seven days after treatment. How it is done: T0 soybean plants expressing an HPPD inhibitor tolerant enzyme of the present invention, along with a gene conferring tolerance to glyphosate and a gene conferring tolerance to glufosinate or having a “plant expression cassette”, which includes only an HPPD inhibitor tolerant enzyme of the present invention, were tested for tolerance to mesotrione. Prior greenhouse trials with the transgenic plants, soy transformants were routinely analyzed for the expression and presence of the transgenes using the ELISA protein detection method (see detailed description under item D and H). Only plants recovering in the selection media and having a detectable HPPD transgene protein expression were used for the herbicide tolerance analysis. A DeVries Tracker Sprayer was calibrated prior to each spraying. The chemical formulation used for mesotrione (MST) testing was Callisto® 4 SC formulation supplemented with ammonium sulfate and methylated rape seed oil (Actirob). Spray tests were conducted using 3× the field rate (equivalent to 9 fluid ounce per acre of the same herbicide formulation that containing 40% the active ingredient (AI), mesotrione), which equals 316 grams AI per hectare. Tolerance was evaluated one week after spraying. […] A tolerance rating of “0” was assigned to plants that their shoot apexes, newly emerged trifoliates and some axillary buds were completely bleached. A rating of “1” was assigned to plants having slight tolerance, i.e., the newest plant shoot tissues had some green leaves and are not bleached completely. A rating of “2” was assigned to plants showing moderate tolerance, i.e., more than 50% of the leaf area of the top three trifoliates showing no chlorosis or bleaching damage. A rating of “3” was assigned to plants showing nearly perfect tolerance, i.e., less than 10% of the leaf area showing chlorosis or very slight bleaching.

The subject of series [1] is Pseudomonas fluorescens HPPD protein. Put plainly: brown color assay: HPPD extracts spotted on solid media containing tyrosine and an HPPD inhibitor. The format is biochemical. As to conditions: TBT, DKN and mesotrione 500-2000 uM, compared with PfHPPD and PfEvo33. How it is done: A specific, although non-limiting, type of assay that can be used to evaluate the HPPD sequences of the invention is a colorimetric assay. In this assay, a YT-broth-type culture medium with 1% agarose, 5 mM L-Tyrosine and 42 mM Succinate, which contains the selection agent for the vector pSE420 (Invitrogen, Karlsruhe, Germany) or a modified version of pSE420 (pSE420(RI)NX) is poured into deep well plates. E. coli culture in the exponential growth phase which contains the vector pSE420-HPPDx (HPPDx means any gene coding for a putative HPPD enzyme/protein) is applied to each well.
The HPPD PfEvo33 mutant (described in International Patent Application No PCT/US2013/59598 (filed on Sep. 13, 2013) and set forth herein as SEQ ID NO:5) was mutagenized at positions 334 and 336. Saturated mutagenesis of these positions was carried out using the QUIKCHANGE® lightning kit. Mutants were pooled and transformed into DH5alpha E. coli cells. Six hundred individual clones were screened for tolerance to the HPPD inhibitor tembotrione (TBT). The clones were grown in LB media plus kanamycin at 37 degrees C. in a shaker until an OD600 nm of 0.3 was reached. Cultures were then switched to 30 degrees C. and incubated for an additional 17 hours. Cultures were spun down and cell pellets resuspended in 10 mM Hepes/KOH pH 7.6, 4 mM MgCl2, 1 mM DTT. […]
The mutants were analyzed using a brown color assay. […]

Series [2] shares this test system. Description: OD assay: HPPD activity and pI50 from HPP remaining after derivatisation with DNP. Type of series: biochemical. To be noted: for Activity DeltaE/24 min μg Protein: HPPD enzyme activity of the clone; for tolerance (pI50) Cmpd. 2: inhibitor Cmpd. 2; for tolerance (pI50) DKN: inhibitor diketonitrile (DKN), negative log of molar concentration; for tolerance (pI50) MST: inhibitor mesotrione (MST); for tolerance (pI50) TBT: inhibitor tembotrione (TBT). Summed up: (§1)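 Purified Pseudomonas fluorescens HPPD, room temperature. OD assay: 50 mM Tris-HCl pH 7.8, 0.5 mM HPP, 10 mM ascorbate, catalase, 24 min, remaining HPP derivatised with DNP, read at 405 nm, inhibitor 5.0×10^−6 to 5.0×10^−4 M. HGD assay: 200 mM Tris-HCl pH 7.6, 600 μM HPP, 20 μM FeSO4, coupled HGA dioxygenase, initial rates at 318 nm, inhibitor ≤100 μM, time-course gives inhibition type; pI50 from 4-parameter fits.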

For series [3] the test system is unchanged. Put plainly: HGD assay: HPPD activity coupled to HGA dioxygenase, pI50 and type of inhibition (time-course). To be noted: for tolerance (pI50) DKN: inhibitor diketonitrile (DKN); for tolerance (pI50) MST: inhibitor mesotrione (MST); for tolerance (pI50) TBT: inhibitor tembotrione (TBT). The format is biochemical. Summed up: as §1
Where [4] appears, read: HT-single plant expression cassette.
The mark [5] stands for this setting: HT-triple plant expression cassette.

These results are taken from patent publication US10400249B2, “HPPD variants and methods of use” (priority 2014, dated 2019).

Substitutions are numbered along the chain they refer to. Names and notes keep the numbering of the source.

For `CSc1c(C(F)(F)F)ccc(C(=O)Nc2nnnn2C)c1Cl` [Cmpd. 4, 2-chloro-3-(methylsulfanyl)-N-(1-methyl-1H-tetrazol-5-yl)-4-(trifluoromethyl)benzamide], in the series with maize T0 events, the “leaf damage of control maize T0 events expressing EPSPS only, no HPPD variant” value stood at 100% and the “leaf damage of non-transformed maize plants” value is given as 100%.

For the molecule `CS(=O)(=O)c1cc(C(F)(F)F)ccc1C(=O)c1cnoc1C1CC1` [isoxaflutole, (5-cyclopropyl-4-isoxazolyl)[2-(methylsulfonyl)-4-(trifluoromethyl)phenyl]methanone], the “appearance of wild-type soybean shoots treated with the herbicide” value in the series on soybean shoots is reported as “entirely bleached”.

Consider `CS(=O)(=O)c1ccc(C(=O)C2C(=O)CCCC2=O)c(Cl)c1COCC(F)(F)F` [tembotrione, 2-[2-chloro-4-(methylsulfonyl)-3-[(2,2,2,-trifluoroethoxy)methyl]benzoyl]-1,3-cyclo-hexanedione], for which the “appearance of wild-type soybean shoots treated with the herbicide” value in the series on soybean shoots is on record as “entirely bleached”.

B1: PfEvo43: PfHPPD variant E335P, G336F (protein)
chain: MADLYENPMGLMGFEFIEFASPTPGTLEPIFEIMGFTKVATHRSKNVHLYRQGEINLILNNEPNSIASYFAAEHGPSVCGMAFRVKDSQKAYNRALELGAQPIHIDTGPMELNLPAIKGIGGAPLYLIDRFGEGSSIYDIDFVYLEGVERNPVGAGLKVIDHLTHNVYRGRMVYWANFYEKLFNFREARYFDIKGEYTGLTSKAMSAPDGMIRIPLNEESSKGAGQIEEFLMQFNGEGIQHVAFLTDDLVKTWDALKKIGMRFMTAPPDTYYEMLEGRLPDHGEPVDQLQARGILLDGSSVEGDKRLLLQIFSETLMGPVFFEFIQRKGDDGFGPFNFKALFESIERDQVRRGVLTAD
modifications: HPPD variant - PfEvo43
notes: PfHPPD variant E335P, G336F
For B1, in the series on T0 soybean plants (setting [4]), the “Number of T0 soybean plants with herbicide tolerance rating 0 (completely bleached)” value (from here on “Number … (completely bleached)”) was determined as 1, the “Number of T0 soybean plants with herbicide tolerance rating 1 (slight tolerance)” value (“Number of T0 soybean plants … (slight tolerance)” for short) is 13, the “Number of T0 soybean plants with herbicide tolerance rating 2 (moderate tolerance)” value (shortened to “Number … (moderate tolerance)”) was determined as 25 and the “Number of T0 soybean plants with herbicide tolerance rating 3 (nearly perfect tolerance)” value (“Number … (nearly perfect tolerance)” for short) turned out to be 34. Further, in the series with T0 soybean plants (setting [5]), the “Number … (completely bleached)” value came to 6, the “Number of T0 soybean plants … (slight tolerance)” value was determined as 18, the “Number … (moderate tolerance)” value is 26 and the “Number … (nearly perfect tolerance)” value was 20. The “brown color formation in presence of HPPD inhibitors” value in series [1] was “darkest color”. Also, in series [2], the “Activity DeltaE/24 min μg Protein” value was 0.39 DeltaE/24 min μg Protein, the “tolerance (pI50) Cmpd. 2” value is above 5.6, the “tolerance (pI50) DKN” value worked out at 4.1 and the “tolerance (pI50) MST” value was 4.6. Besides, in series [3], the “mechanism of inhibition by diketonitrile (DKN), time-course of inhibition” value (from here on “mechanism of inhibition by diketonitrile”) is “fully reversible inhibition”; the “mechanism of inhibition by mesotrione (MST), time-course of inhibition” value (shortened to “mechanism of inhibition by mesotrione”) is “fully reversible inhibition”; the “mechanism of inhibition by tembotrione (TBT), time-course of inhibition” value (“mechanism of inhibition by tembotrione” for short) is given as “fully reversible inhibition”. Besides, in series [3] (HGD assay), the “tolerance (pI50) DKN” value turned out to be 4.0, the “tolerance (pI50) MST” value was determined as 5.1 and the “tolerance (pI50) TBT” value is 6.0.

B2: PfEvo44: PfHPPD variant E335P, G336Y (protein)
chain: B1 chain with F336Y
modifications: HPPD variant - PfEvo44
notes: PfHPPD variant E335P, G336Y
For B2, in the series on T0 soybean plants (setting [4]), the “Number … (completely bleached)” value is recorded as 7, the “Number of T0 soybean plants … (slight tolerance)” value came out at 14, the “Number … (moderate tolerance)” value stood at 43 and the “Number … (nearly perfect tolerance)” value was 21. In the series with T0 soybean plants (setting [5]), the “Number … (completely bleached)” value turned out to be 4, the “Number of T0 soybean plants … (slight tolerance)” value is 22, the “Number … (moderate tolerance)” value was 19 and the “Number … (nearly perfect tolerance)” value stood at 26. For the same molecule, in series [1], the “brown color formation in presence of HPPD inhibitors” value is given as “darkest color”. Moreover, in series [2], the “Activity DeltaE/24 min μg Protein” value is given as 0.41 DeltaE/24 min μg Protein, the “tolerance (pI50) DKN” value came to 4.0, the “tolerance (pI50) MST” value is listed as 4.6 and the “tolerance (pI50) TBT” value was above 5.6. Besides, in series [3], the “mechanism of inhibition by diketonitrile” value was “fully reversible inhibition”; the “mechanism of inhibition by mesotrione” value is reported as “fully reversible inhibition”; the “mechanism of inhibition by tembotrione” value is reported as “fully reversible inhibition”. Besides, in series [3] (HGD assay), the “tolerance (pI50) DKN” value is given as 4.1, the “tolerance (pI50) MST” value is reported as 5.2 and the “tolerance (pI50) TBT” value is given as 5.9.

B3: FLP130: PfHPPD variant E335P, G336F, A340E (protein)
chain: B1 chain with A340E
modifications: HPPD variant - FLP130
notes: PfHPPD variant E335P, G336F, A340E
In the case of B3, in the series on T0 soybean plants (setting [5]), the “Number … (completely bleached)” value is listed as 3, the “Number of T0 soybean plants … (slight tolerance)” value came to 18, the “Number … (moderate tolerance)” value was found to be 39 and the “Number … (nearly perfect tolerance)” value is on record as 11. Moreover, in series [2], the “Activity DeltaE/24 min μg Protein” value is on record as 0.39 DeltaE/24 min μg Protein, the “tolerance (pI50) Cmpd. 2” value is 5.5, the “tolerance (pI50) DKN” value was 3.2 and the “tolerance (pI50) MST” value came to 3.7. The “tolerance (pI50) TBT” value in series [2] worked out at 4.8. Further, in series [3], the “mechanism of inhibition by diketonitrile” value is “fully reversible inhibitors”; the “mechanism of inhibition by mesotrione” value was “fully reversible inhibitors”; the “mechanism of inhibition by tembotrione” value is on record as “fully reversible inhibitors”. In series [3] (inhibitor Cmpd. 1, HGD assay), the “tolerance (pI50) Cmpd. 1” value is recorded as 6.2. Also, the “tolerance (pI50) Cmpd. 2” value in series [3] (inhibitor Cmpd. 2, HGD assay) is reported as 6.2. The “tolerance (pI50) Cmpd. 3” value in series [3] (inhibitor Cmpd. 3, HGD assay) is 6.4. In addition, the “tolerance (pI50) Cmpd. 4” value in series [3] (inhibitor Cmpd. 4, HGD assay) is on record as 6.6. Besides, in series [3] (inhibitor Cmpd. 5, HGD assay), the “tolerance (pI50) Cmpd. 5” value was 6.0. In series [3] (HGD assay), the “tolerance (pI50) DKN” value was 4.3, the “tolerance (pI50) MST” value amounted to 5.3 and the “tolerance (pI50) TBT” value was found to be 6.2.
